Results on 19 molecules are retold here after PMC5340008 (BMC Biochemistry, 2017).

B1: BLIP [change] (natural protein)
chain: AGVMTGAKFTQIQFGMTRQQVLDIAGAENCETGGSFGDSIHCRGHAAGDQYAYATFGFTSAAADAKVDSKSQEKLLAPSAPTLTLAKFNQVTVGMTRAQVLATVGQGSCTTWSEYYPAYPSTAGVTLSLSCFDVDGYSSTGFYRGSAHLWFTDGVLQGKRQWDLV
B2: BLIP [change] (natural protein)
chain: B1 chain with Q50W
B3: BLIP [change] (natural protein)
chain: B1 chain with Q50F
B4: BLIP [change] (natural protein)
chain: B1 chain with Q50T
B5: BLIP [change] (natural protein)
chain: B1 chain with Q50P
B6: BLIP [change] (natural protein)
chain: B1 chain with Q50H
B7: BLIP [change] (natural protein)
chain: B1 chain with Q50G
B8: BLIP [change] (natural protein)
chain: B1 chain with Q50R
B9: BLIP [change] (natural protein)
chain: B1 chain with Q50N
B10: BLIP [change] (natural protein)
chain: B1 chain with Q50A
B11: BLIP [change] (natural protein)
chain: B1 chain with Q50E
B12: BLIP [change] (natural protein)
chain: B1 chain with Q50S
B13: BLIP [change] (natural protein)
chain: B1 chain with Q50C
B14: BLIP [change] (natural protein)
chain: B1 chain with Q50K
B15: BLIP [change] (natural protein)
chain: B1 chain with Q50M
B16: BLIP [change] (natural protein)
chain: B1 chain with Q50L
B17: BLIP [change] (natural protein)
chain: B1 chain with Q50V
B18: BLIP [change] (natural protein)
chain: B1 chain with Q50D

Positions count from the first letter of the chain named.

The first assay addresses Bacillus anthracis Bla1 β-lactamase (Bacillus anthracis).
Experiment: not given
Conditions: not given
The molecule “β-lactamase inhibitory protein (BLIP), wild type (from UniProt P35804 37-201) (natural protein)” returned a Ki of 2.5 nM.

A further assay concerns the target KPC-2 β-lactamase (UniProt Q9F663 25-293). Briefly: β-lactamase inhibition assay (nitrocefin hydrolysis, Morrison tight-binding fit); increasing concentrations of BLIP incubated with 1 nM β-lactamase for 1 h at room temperature in 50 mM sodium phosphate pH 7.0; nitrocefin added at its Km, initial velocity at 482 nm; Ki calculated from Ki app. Particulars: both partners purified.
For the molecule B1, the Ki was 1 nM. Same read-out and setting: next, B2: 1.1 nM; B3: 15 nM; B4: 3.5 nM.

For B5, the Ki is 5 nM. On the same count and under the same terms, next, B6: 1.4 nM; B7: 0.72 nM. As to B8, the Ki was 11 nM. B9: the Ki is 3.8 nM.

Turning to B10, the Ki is 1.9 nM. In the case of B11, the Ki was 5.5 nM. Still for that read-out and setting: next, B12: 5 nM; B13: 42 nM.

In the case of B14, the Ki is 260 nM. On the same count and under the same terms, next, B15: 0.5 nM; B16: 0.7 nM; B17: 10 nM. On the same count and under the same terms, next, B18: 3.2 nM.

Another assay has as its target TEM-1 β-lactamase (UniProt P62593 24-286). The assay is described as above. As to conditions: both partners purified.
B1: the Ki is 0.24 nM. As for B2, the Ki is 11 nM. Same read-out and setting: next, B3: 10.3 nM; B4: 2.5 nM; B5: 40 nM.

As to B6, the Ki is 5 nM. The same measure, in the same setting: next, B7: 0.4 nM. For B8, the Ki is 69 nM.

On to B9, for which the Ki is 7.8 nM. On to B11, for which the Ki was 76 nM. The same measure, in the same setting: next, B12: 1.1 nM; B13: 60 nM. Same read-out and setting: next, B14: 195 nM; B15: 0.11 nM. Still for that read-out and setting: next, B16: 0.17 nM; B17: 3.5 nM. Regarding B18, the Ki is 160 nM.
